Assay results as given in US20220017617A1 (SHANGHAI EPIMAB BIOTHERAPEUTICS, published 2022).

B1: anti-PD-L1 monoclonal antibody 3G10 (parental) (antibody, V domains shown)
VH: QVQLVQSGAEVKKPGASVKVSCKASGYTFTDYGFSWVRQAPGQGLEWMGWITAYNGNTNYAQKLQGRVTMTTDTSTSTVYMELRSLRSDDTAVYYCARDYFYGMDVWGQGTTVTVSS
VL: EIVLTQSPATLSLSPGERATLSCRASQSVSSYLVWYQQKPGQAPRLLIYDASNRATGIPARFSGSGSGTDFTLTISSLEPEDFAVYYCQQRSNWPRTFGQGTKVEIK
notes: It was captured by anti-human IgG Fc sensors; also called mAb 3G10; parental anti-PD-L1 mAb 3G10
B2: PD-L1/EGFR FIT-Ig5 (bispecific antibody, human IgG1, kappa)
heavy: not shown
chain: QVQLVQSGAEVKKPGASVKVSCKASGYTFTDYGFSWVRQAPGQGLEWMGWITAYNGNTNYAQKLQGRVTMTTDTSTSTVYMELRSLRSDDTAVYYCARDYFYGMDVWGQGTTVTVSSASTKGPSVFPLAPSSKSTSGGTAALGCLVKDYFPEPVTVSWNSGALTSGVHTFPAVLQSSGLYSLSSVVTVPSSSLGTQTYICNVNHKPSNTKVDKKVEPKSC
light: not shown
notes: Six-chain hexamer with no linkers; Human IgG1 Fc
B3: EGFR/PD-L1 FIT-Ig6 (bispecific antibody, human IgG1, kappa)
heavy: not shown
chain: QVQLQESGPGLVKPSETLSLTCTVSGGSVSSGDYYWTWIRQSPGKGLEWIGHIYYSGNTNYNPSLKSRLTISIDTSKTQFSLKLSSVTAADTAIYYCVRDRVTGAFDIWGQGTMVTVSSASTKGPSVFPLAPSSKSTSGGTAALGCLVKDYFPEPVTVSWNSGALTSGVHTFPAVLQSSGLYSLSSVVTVPSSSLGTQTYICNVNHKPSNTKVDKKVEPKSC
light: not shown
notes: as for B2

Assays:
[1] = molecular target: T1, recombinant human PD-L1 (Novoprotein) (human, UniProt Q9NZQ7 19-239, limits assumed); experiment: BLI (Octet RED96), antibody captured on anti-human IgG Fc sensors, antigen in solution, 1:1 fit
T1 construct: Bought reagent; also called Programmed Death Ligand 1; CD274
T1 sequence (Q9NZQ7 19-239 limits assumed): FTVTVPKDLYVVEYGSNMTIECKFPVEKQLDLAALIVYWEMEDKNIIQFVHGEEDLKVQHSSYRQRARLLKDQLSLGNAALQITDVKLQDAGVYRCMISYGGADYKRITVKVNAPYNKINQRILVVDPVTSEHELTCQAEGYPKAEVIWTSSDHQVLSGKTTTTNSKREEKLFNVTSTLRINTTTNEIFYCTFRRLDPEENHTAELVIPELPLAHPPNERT
Procedure: (§1) Briefly, each parental mAb and FIT-Ig was characterized for affinities and binding kinetics by Octet®RED96 biolayer interferometry (Pall FortéBio LLC). Each parental mAb and FIT-Ig were captured by Anti-Human IgG Fc Capture (AHC) Biosensors (Pall) at a concentration of 100 nM for 30 seconds. Sensors were then dipped into running buffer (1X, pH 7.2, PBS, 0.05% Tween 20, 0.1% BSA) for 60 seconds to check baseline. Binding was measured by dipping sensors into […] recombinant human PD-L1 (Novoprotein) or recombinant human EGFR (Sino Biological Inc) both ranging from 1 nM to 200 nM. Dissociation was followed by dipping sensors into running buffer for 1200 seconds. The association and dissociation curves were fitted to a 1:1 Langmuir binding model using ForteBio Data Analysis software (Pall).

[2] = molecular target: T2, recombinant human EGFR (Sino Biological Inc) (human, UniProt P00533 25-645); experiment: BLI (Octet RED96), FIT-Ig captured on anti-human IgG Fc sensors, antigen in solution, 1:1 fit
T2 construct: Bought reagent; also called epidermal growth factor receptor
Procedure: as §1

[3] = molecular target: T1, recombinant human PD-L1 (Novoprotein); experiment: as above
Procedure: as §1

[4] = molecular target: T2, recombinant human EGFR (Sino Biological …); experiment: BLI (Octet RED96), comparison of KD values
Procedure: as §1

[5] = molecular target: T1, recombinant human PD-L1 (Novoprotein); experiment: BLI (Octet RED96), comparison of KD values
Procedure: as §1

Row | Binder | Kd [1] [nM] | koff [1] [s⁻¹] | kon [1] [M⁻¹ s⁻¹] | Kd [2] [nM] | koff [2] [s⁻¹] | kon [2] [M⁻¹ s⁻¹] | Kd [3] [nM] | koff [3] [s⁻¹] | kon [3] [M⁻¹ s⁻¹] | KD lower than that of the parental panitumumab [4] [%] | KD higher than that of the parental mAb 3G10 [5] [%]
1 | B1 | 12.5 | 0.0122 | 979000 | – | – | – | – | – | – | – | –
2 | B2 | – | – | – | 0.379 | 6.14e-05 | 162000 | 11.1 | 0.0156 | 1.4e+06 | – | –
3 | B3 | – | – | – | 0.491 | 0.000107 | 218000 | 16.3 | 0.0144 | 886000 | ~25 | ~30
